Results as given in PMC7963221.

Legend:
Assay in all cases: FACS
[1] = target: RaTG13 RBD
[2] = target: GD-Pangolin RBD
[3] = target: A021 RBD
[4] = target: Frankfurt 1 RBD
[5] = target: WIV1 RBD
[6] = target: Civet 007-2004 RBD
[7] = target: CS24 RBD
[8] = target: SHC014 RBD
[9] = target: LYRa11 RBD
[10] = target: Rs4231 RBD

CB6/LY-CoV16
Kd [1]: 3.6 nM | Kd [2]: 2.15 nM

LY-CoV555
Kd [2]: 1.3 nM

REGN10933
Kd [2]: 0.64 nM

REGN10987
Kd [2]: 1.44 nM

S309
Kd [3]: 4.14 nM | Kd [4]: 3.5 nM | Kd [5]: 3.89 nM | Kd [1]: 2.88 nM | Kd [6]: 3.75 nM | Kd [7]: 2.52 nM | Kd [8]: 3.78 nM | Kd [9]: 4.53 nM | Kd [2]: 4.53 nM | Kd [10]: 3.77 nM
